According to patent US10100120B2, “Antibody which specifically binds to human CRTH2” (KYOWA HAKKO KIRIN CO., LTD, priority 2015, dated 2018):

Columns and labels:
[1] = molecular target: T1, mutated human CRTH2 with amino acid substitution (Homo sapiens, UniProt Q9Y5Y4, D171A/I173A/T172A); assay: Epitope analysis using CHO-S cells which express mutated human CRTH2 with amino acid substitution; type: binding; conditions: mutant D171A, T172A, and I173A; antibody 10 μg/mL; relative to wild-type = 100%
T1 construct: inserting genes encoding various mutants with amino acid substitution obtained by deleting termination codons; expressed in transfected cells; host or cells: CHO-S cells (Lifetechnologies), transient (phmAG1-MNLinker vector)
T1 sequence (Q9Y5Y4 1-395 D171A/T172A/I173A): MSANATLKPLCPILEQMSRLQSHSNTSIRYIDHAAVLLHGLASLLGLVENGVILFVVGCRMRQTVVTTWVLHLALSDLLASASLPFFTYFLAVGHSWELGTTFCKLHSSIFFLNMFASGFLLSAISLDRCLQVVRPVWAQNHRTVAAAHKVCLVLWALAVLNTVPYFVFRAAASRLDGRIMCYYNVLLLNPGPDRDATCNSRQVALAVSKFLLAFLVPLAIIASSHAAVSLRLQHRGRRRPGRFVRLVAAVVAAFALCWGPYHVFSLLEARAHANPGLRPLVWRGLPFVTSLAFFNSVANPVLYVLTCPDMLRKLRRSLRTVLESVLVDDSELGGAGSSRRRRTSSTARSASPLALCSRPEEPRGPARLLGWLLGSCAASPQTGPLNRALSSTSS
Method: A mutant with amino acid substitution expression vector obtained by partially substituting amino acid residues in an extracellular region with other amino acid residues among the amino acid sequences of human CRTH2 was prepared. Specifically, mutant with amino acid substitution expression vectors obtained by substitution of S2A; N4A; T6A and L7A; K8A, P9A, and L10A; P12A, L14A, and EISA; Q16E, R19H, and Q21R; H23A, S24A, and N25A; T26A, S27A, and I28A; D171A, T172A, and I173A; S174A, R175A, and L176A; D177A, G178A, and R179A; 1180A and M181A; Y183A, Y184A, and N185A; L187A, L188A, and L189A; N190A; P191A; G192A; P193A; D194A; R195A; D196A, and T198A; N275A, G277A, and L278A; P276A; P279A and L281A; P280A; or V282A, R283A, and R284A in the amino acid sequences represented by SEQ ID NO: 2 were respectively prepared. It should be noted that the above symbols in the amino acid substitution indicate [single letter code of an amino acid residue before substitution] [substitution position counting from the N terminal] [single letter code of the amino acid reside after substitution].
Azami-Green tag was added to the intercellular C terminal region by inserting genes encoding various mutants with amino acid substitution obtained by deleting termination codons to the restriction enzyme sites of BamHI and HindIII using phmAG1-MNLinker (MBL) as expression vectors.
The above-described vectors expressing mutants with amino acid substitution were prepared using 1) a method of entirely synthesizing gene sequences encoding mutants with amino acid substitution and inserting the gene sequences into a vector or 2) a method of performing site-specific mutation from a vector into which DNA which encodes the amino acid sequences of wild-type human CRTH2 represented by SEQ ID NO: 1 was inserted.
CHO-S cells (Lifetechnologies) were used for preparing mutated human CRTH2 with amino acid substitution expressing cell lines. Free style CHO expression medium (Invitrogen) containing 8 mM L-Glutamine (Invitrogen) was used for subculturing cells and the cells were cultured by shaking under the conditions of 37° C. in the presence of 5% CO2.
25 μg of the mutated human CRTH2 with amino acid substitution expression vector prepared in (1) described above was dissolved in 400 μL of Opti-Pro SFM (Invitrogen) and 25 μL of a Freestyle MAX Reagent (Invitrogen) was dissolved in 400 μL of Opti-Pro SFM and each of them were allowed to stand at room temperature for 5 minutes. The two liquids were mixed with each other and allowed to stand at room temperature for 15 minutes. The mixed solution was added to the CHO-S culture solution and the cells were cultured for 24 hours, thereby obtaining cell lines which express mutated human CRTH2 with amino acid substitution.
The CHO-S cells which express mutated human CRTH2 with amino acid substitution established in (2) were washed with SM, seeded in a 96-well plate such that one well has 2×10^5 cells, and centrifuged at 1700 rpm for 2 minutes. After the supernatant was removed, chLym2, LV0HV1, the anti-human CRTH2 antibody hu19A2 v52, hu8B1 v1, ch3C12, or ch31A5 prepared in Example 9, or a commercially available anti-human CRTH2 antibody BM16 (Santa Cruz) prepared to have a concentration of 10 μg/mL using SM was added thereto to cause a reaction at 4° C. for 1 hour.
After the cells were washed, goat anti-Human IgG Alexa 647 (Molecular Probes) diluted with SM was added to wells to which chLym2, LV0HV1, hu19A2 v52, hu8B1 v1, ch3C12, or ch31A5 was added and goat anti-Rat IgG Alexa 647 (Molecular Probes) diluted with SM was added to wells to which BM16 was added at a final concentration of 10 μg/mL to cause a reaction at 4° C. for 1 hour.
After the reaction, the cells were washed and suspended with SM, and the fluorescent intensity was analyzed by flow cytometry (BD Biosciences, FACS CantoII). […]

human basophils = assay: Reactivity against human basophils, flow cytometry; type: binding; conditions: 10 μg/mL, 4° C., 1 hour; FIG. 9
Method: To human peripheral blood collected by adding a heparin sodium injection liquid, the same amount of physiological saline for injection as the human peripheral blood was added and mixed with each other. 15 mL of Ficoll-Paque PREMIUM 1.084 (GE Healthcare) was added to a 50 mL centrifuge tube, 30 mL of the human peripheral blood diluted with physiological saline was overlaid thereon, and centrifugation was performed at room temperature and 1500 rpm for 30 minutes.
After the centrifugation, the mononuclear cell layer was recovered using a pipette and washed twice with an MACS buffer. After the number of cells was counted, basophils were isolated by a negative selection method using Basophil Isolation Kit II, human (Miltenyi Biotec) according to the attached instructions.
After the isolated cells were washed with SM, the isolated cells were seeded in a 96-well plate such that one well has 5×10^4 cells, and centrifuged at 2000 rpm for 2 minutes. […] After the cells were washed, the cells were suspended with SM, and the fluorescent intensity was analyzed by flow cytometry (BD Biosciences, FACS CantoII).

Th2 cells = assay: Cytotoxic activity against Th2 cells: cytokine production of PBMC after antibody treatment; type: cell-based, human; conditions: antibody 10 μg/mL 20 hours, then anti-CD3/anti-CD28 stimulation 3 days
Method: The mononuclear cell layer prepared in the same manner as in Example 13 was washed twice with RPMI-1640 (Wako Pure Chemical Industries) to which 1/10 volume FBS (GIBCO Inc.), 200 mM-L-Glutamine Stock Solution (NACALAI TESQUE, Inc.), 10 mM MEM Non-Essential Amino Acids Solution (GIBCO Inc.), 100 mM Sodium Pyruvate (GIBCO Inc.), 1 M HEPES Buffer Solution (GIBCO Inc.), and 1/100 volume Penicillin-Streptomycin, Liquid (GIBCO Inc.) were added [hereinafter, referred to as peripheral blood mononuclear cell (PBMC) culture medium], thereby preparing a 1×10^7 cells/mL cell suspension.
The prepared cell suspension was seeded in a 96-well plate at 100 μL/well, chLym2 antibody, the humanized anti-human CRTH2 antibody LV0HV1 or the isotype control antibody described in Example 8 was added thereto at a final concentration of 10 μg/mL to cause a reaction in a 5% CO2 incubator at 37° C. for 20 hours.
The cells after the reaction were washed 7 times with a PBMC culture medium to remove the test antibodies thoroughly. Thereafter, the cells were suspended with 100 μL of PBMC culture medium and seeded in a plate in which anti-CD3 antibody OKT3 (Abeam plc.) was immobilized at a concentration of 1 μg/mL. Next, an anti-CD28 antibody (BD Biosciences) prepared to have a concentration of 2 μg/mL was added thereto at 100 μL/well to cause a reaction in a 5% CO2 incubator at 37° C. for 3 days.
The supernatant after the reaction was recovered, and cytokine in the supernatant was quantified using Human IFN-γ Flex Set (BD Biosciences), Human IL-5 Flex Set (BD Biosciences), and Human IL-13 Flex Set (BD Biosciences) according to the attached instructions.

reactivity against cells expressing mutated human CRTH2 [1]: additionally lost
B1: chLym2: rat/human chimeric Lym2 antibody, Lym2 variable regions with human IgG1 and κ constant regions (antibody, V domains shown)
VH: EVQLVESGGGLVQPGRSMKLSCAASGFTFSNYYMAWVRQAPKKGLEWVATISYDGSSTYYRDSVKGRFTISRDNAKSTLYLQMDSLRSEDTATYYCARHRGYYYSGAGYFDYWGQGVMVTVSS
VL: DVVLTQTPVSLSVTLGDQASISCRSSQSLEYSDGYTYLEWYLQKPGQSPQVLIYGVSNRFSGVPDRFIGSGSGTDFTLKISRVEPEDLGVYYCFQATHDPLTFGSGTKLEIK
reactivity against human basophils (human basophils): has reactivity | production of IL-5 (Th2 cytokine) (Th2 cells; FIG. 12(A)): reduced | production of IL-13 (Th2 cytokine) (Th2 cells; FIG. 12(A)): reduced | production of IFN-γ (Th1 cytokine) (Th2 cells; FIG. 12(B)): not changed
